Key:
Experiment in all cases: phosphorylase kinetics, synthetic direction
Type in all cases: biochemical, Acetivibrio thermocellus
Conditions in all cases: acceptor cellobiose (1), matched acceptor; apparent
[1] = substrate: O=P(O)(O)O[C@H]1O[C@H](CO)[C@@H](O)[C@H](O)[C@H]1O
From the text: (§1) phosphorylase kinetics, synthetic direction on cellodextrin phosphorylase (CDP)

[2] = substrate: O=P(O)(O)O[C@H]1O[C@H](CO)[C@H](O)[C@H](O)[C@H]1O
From the text: as §1

[3] = substrate: N[C@H]1[C@@H](OP(=O)(O)O)O[C@H](CO)[C@@H](O)[C@@H]1O
From the text: as §1

B1: cellodextrin phosphorylase (CDP) (Acetivibrio thermocellus) (protein)
chain: MITKVTARNNKITPVELLNQKFGNKINLGNFADAVFTDAAFKNVAGIANLPMKAPVMQVLMENCIVSKYLKQFVPDRSVCFVEEGQKFYIVLEDGQKIEVPEDVNKALKATVSDVKHWAGYLTEDGEHVIDLLKPAPGPHFYVNLLIGNRLGFKRTLQTTPKSVVDRFGRGSFRSHAATQVLATRFDMRQEENGFPANRQFYLYEDGKQIFYSALIDDNIVEATCKHSCNRTVIKYKTACNLEITRTIFLVPHKKGFPLATELQRIEIKNASDKARNLSITYTGMFGTGAVHAIFEDVTYTNVIMQSAALYNDKGEFIGITPDYYPEEFKQDTRFVTMIVRNGDEKSFPQSFCTDYNDFVGTGTLEHPAGGCNLNNKLNRKGPGFFALGAPFTVEPGKTVIIDTFTGLSSSKDNENYSDAVMLRELDNLLRYFEKSESVEETLNEIINFHENYGKYFQFNTGNKLFDSGFNRNLAFQVLYQTFMSRSFGQTQKGYREIGFREIQDLFASMYYFINIGYQDFVKELLFEWTANVYKMGYANHNFYWVGKQPGLYSDDSLWLLQAYYRYIIYTKDTSVLNEEVPVADGNNEKRAVRETLKAIIQYSACISVGDHGLPLLDLADWNDCLKIASNSIDGATKEKLYYEQLKKTNGKYGDRFMSDYSESVMNAFLLKLAIDHLAEIATLDNDTQLAQQMSELSKEVTDRIQKHAWKENFFARVLINRYKDGSYTYLGAKGDKLSADPNIDGVYFLNSFAWSVLSDVATDEQIAIMVDVIKKHLLTPYGLRLVTPADLNKIANDTATGHYFFGDRENGAVFKHASMMAVAALIKAAKKVKDNELAKEMARIAYFMIDLVLPYKNLENPFQVAGNPRICTQYINTDTGENIGPLLSGTATWLNLNLISLAGIEYTRDGISFNPILREEETQLNFTLKAPKCSYKFSITKPVGFARMESSEYELFVDGQKIDNTVIPMYTDEKEHIVTLKFK
notes: wild type, GH94, recombinant from Escherichia coli; homodimer
[1]
  Km: 3000 ± 600 µM
  kcat: 16.4 ± 0.7 s⁻¹
  kcat/Km: 5500 M⁻¹ s⁻¹
[2]
  Km: 9300 ± 1100 µM
  kcat: 0.60 ± 0.02 s⁻¹
  kcat/Km: 60 M⁻¹ s⁻¹
[3]
  Km: 1600 ± 200 µM
  kcat: 0.08 ± 0.003 s⁻¹
  kcat/Km: 50 M⁻¹ s⁻¹

From publication PMC7187349, “Preparative and Kinetic Analysis of β‐1,4‐ and β‐1,3‐Glucan Phosphorylases Informs Access to Human Milk Oligosaccharide Fragments and Analogues Thereof” (Chembiochem, 2019)
